This is an account of results in patent publication US20250270295A1 (ALBERT LUDWIGS UNIVERSITAET FREIBURG, published 2025).

For test [1], the target named is T1, soluble gp34 ectodomain W65F, V5-His tagged (sgp34mtrp-V5-His) (HCMV strain AD169).
T1 construct: signal peptide 1-23 left out; V5 and His tags are in the entry; Forms only monomers and dimers; also called sol gp34mtrp; gp34 1-179 W65F
T1 chain: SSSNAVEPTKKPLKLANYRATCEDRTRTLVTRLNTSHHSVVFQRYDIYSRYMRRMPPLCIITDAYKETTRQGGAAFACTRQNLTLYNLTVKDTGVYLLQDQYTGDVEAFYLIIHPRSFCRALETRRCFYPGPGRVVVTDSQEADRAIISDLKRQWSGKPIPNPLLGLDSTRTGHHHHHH
As to the kind of experiment: ELISA mtrp. On the technique in general: An ELISA detects its analyte on a solid surface through an enzyme-linked reagent.

For test [2], the target named is T2, soluble gp34 wild type ectodomain, V5-His tagged (sgp34wt-V5-His) (HCMV strain AD169).
T2 construct: Entry holds signal peptide 1-23 (left out), ectodomain, V5 tag and His tag; Forms monomers, dimers and higher oligomers; also called sol gp34 wt; gp34 1-179
T2 chain: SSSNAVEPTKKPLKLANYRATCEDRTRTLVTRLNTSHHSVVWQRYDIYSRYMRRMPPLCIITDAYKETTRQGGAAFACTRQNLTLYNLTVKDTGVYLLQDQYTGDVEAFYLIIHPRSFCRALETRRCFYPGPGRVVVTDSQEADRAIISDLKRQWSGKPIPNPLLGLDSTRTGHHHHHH
As to the kind of experiment: sgp34wt pre-incubated with mAb, ELISA on CRP.
From the text: In addition, binding of sgp34wt to immobilized CRP in absence of any mAb is depicted.

Test [3] has as its target T2, soluble gp34 wild type ectodomain, …. As to the kind of experiment: sgp34wt pre-incubated with mAb, ELISA on FcRn.
Method: Furthermore, the gp34wt and FcRn interaction was investigated whereby various anti-gp34 mAbs were analyzed and their potential to block this interaction was identified. Experiments were performed as described before for IgG-blocking ELISA, but this time using immobilized FcRn as a novel gp34-ligand.
In addition, binding of sgp34wt to immobilized FcRn in absence of any mAb is depicted.
The target is the same in test [4]. As to the kind of experiment: blocking of sgp34wt binding to immobilized human IgG, ELISA.
Method: FIG. 44: IgG blocking ability by anti-gp34mtrp mAbs. vFcγR gp34 is an HCMV encoded IgG-Fc-binding. Anti-gp34mtrp-specific mAbs (in titration) were pre-incubated with recombinant, sgp34wt (constant amount 1 μg/ml) and added to IgG-immobilized ELISA plates. […] Dose-dependent potential of mAbs used for blocking is indicated. Effect by non-specific mouse IgG isotype IgG1 is shown. In addition, binding of sgp34wt to immobilized IgG in absence of any mAb is depicted.
To test if anti-gp34wt specific mAbs can interfere with IgG-binding ability of gp34 and human IgG. Therefore, recombinant, sgp34wt was pre-incubated with indicated anti-gp34wt specific mAbs, mouse IgG isotype or PBS only. Next, antibody bound sgp34wt was incubated on IgG-immobilized ELISA plates.
Anti-gp34wt-specific mAbs (in titration) were pre-incubated with recombinant, sgp34wt (constant amount 1 μg/ml) and added to IgG-immobilized ELISA plates. […] Dose-dependent potential of mAbs used for blocking is indicated. […] In addition, binding of sgp34wt to immobilized IgG in absence of any mAb is depicted.
The target in test [5] is T3, soluble human ICOSL ectodomain, V5-His tagged (sICOSL-V5His) (human, UniProt O75144 19-256).
T3 construct: extracellular domain; Control protein with the same tags as the vFcγRs
T3 sequence: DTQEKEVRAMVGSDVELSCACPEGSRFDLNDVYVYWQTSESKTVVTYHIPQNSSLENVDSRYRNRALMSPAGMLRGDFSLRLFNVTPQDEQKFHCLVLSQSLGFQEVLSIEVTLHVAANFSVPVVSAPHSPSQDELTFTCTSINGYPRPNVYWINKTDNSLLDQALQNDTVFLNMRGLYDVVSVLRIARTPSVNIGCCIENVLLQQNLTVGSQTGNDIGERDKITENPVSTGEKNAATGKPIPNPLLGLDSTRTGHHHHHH
As to the kind of experiment: western blot. (A western blot detects proteins with antibodies after separation by electrophoresis.)

Test [6] concerns the target T4, gp34mtrp (W65F) on stably transduced HeLa cells (HCMV strain AD169, UniProt P16809 24-234).
T4 construct: whole, on cells; also called plasma membrane exposed gp34mtrp
T4 sequence: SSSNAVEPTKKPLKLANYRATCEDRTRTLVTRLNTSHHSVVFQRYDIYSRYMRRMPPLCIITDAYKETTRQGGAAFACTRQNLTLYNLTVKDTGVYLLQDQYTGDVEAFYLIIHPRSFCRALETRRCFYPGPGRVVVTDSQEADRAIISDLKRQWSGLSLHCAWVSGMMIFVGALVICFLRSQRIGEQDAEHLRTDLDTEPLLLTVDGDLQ
As to the kind of experiment: flow cytometry, HeLa. (A flow cytometer gives signals particle by particle.)

In test [7] the target is T5, gp34wt on stably transduced HeLa cells (HCMV strain AD169, UniProt P16809 24-234).
T5 construct: whole, on cells; also called plasma membrane exposed gp34wt
T5 sequence: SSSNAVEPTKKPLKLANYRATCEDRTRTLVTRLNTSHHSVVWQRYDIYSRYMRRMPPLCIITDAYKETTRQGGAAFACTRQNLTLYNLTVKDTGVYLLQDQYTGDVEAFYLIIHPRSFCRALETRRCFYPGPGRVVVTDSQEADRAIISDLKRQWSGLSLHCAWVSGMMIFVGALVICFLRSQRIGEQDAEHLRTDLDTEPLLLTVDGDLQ
As to the kind of experiment: flow cytometry, HeLa, 1 µg/ml.

A word on the IC50: it is the midpoint of a concentration-inhibition curve. A high value points to lower potency.

B1: gp34mtrp.03 (antibody, V domains shown)
VH: EVQLEESGTVLARPGASVKMSCKASGYTFTSYWMHWVKQRPGQGLEWIGAIYPGNSDTGYNQKFKGKARLTAVTSTSTAYLELSSLTDEDSAVYFCTRLGYGDYWGQGTTLTVSS
VL: DIVLTQTPSSMYASLGERVTITCKASQDINSYLTWFQQKPGKSPKTLIYRANRLVDGVPSRFSGSGSGQDYSLTINSLDYEDMGIYYCLQYDEFPPTFGGGTKLEIK
notes: mouse IgG1 hybridoma mAb; leader in entries; also called anti gp34 clone mtrp.03
For B1, the binding result in test [1] is “binds”. Further, the “percent blocking of gp34-CRP-binding” value in test [2] was ~50%. In addition, in test [3], the “percent blocking of gp34 FcRn-binding” value is ≤ 50%. This molecule registered a half-inhibitory concentration (IC50) in test [4] of 0.152 µg/mL.

B2: gp34mtrp.04 (antibody, V domains shown)
VH: EVKLVQSGTVLARPGASVKMSCKASGYTFTSYWMHWVKQRPGQGLEWIGAIYPGNSDTGYNQKFKGKARLTAVTSTSTAYLELSSLTDEDSAVYFCTRLGYGDYWGQGTTLTVSS
VL: DIVMTQTPSSMYASLGERVTITCKASQDINSYLTWFQQKPGKSPKTLIYRANRLVDGVPSRFSGSGSGQDYSLTINSLDYEDMGIYYCLQYDEFPPTFGGGTKLEIK
notes: mouse IgG1 hybridoma mAb; leader in entries; also called anti gp34 clone mtrp.04
As to B2, the binding result in test [1] is recorded as “binds”. In addition, the “percent blocking of gp34-CRP-binding” value in test [2] is ~50%. In addition, in test [3], the “percent blocking of gp34 FcRn-binding” value was ≤ 50%. The same molecule returned a half-maximal inhibitory concentration (IC50) in test [4] of 0.147 µg/mL.

B3: gp34wt.13 (antibody, V domains shown)
VH: EVQLVESGPELKKPGETVKISCKASGYAFTNYGMNWVKQTPGKGLKWMGWINTYTGKPTYADDFKGRFAFSLETSASSAYLQINNLKNEDTATYFCARRRGNSFDYWGQGTTLTVSS
VL: DIVLTQSPSSLTVTAGEKVTMSCKSSQSLLNSGNQENCLTWYQQKPGQPPRLLIYWASTRESGVPDRFTGSGSGTDFTLTISSVQAEDLAVYYCQNDYTYPLTFGAGTKLELK
notes: mouse IgG2a hybridoma mAb; leader in entries; also called anti gp34 clone wt.13
Take B3: the binding result in test [5] was “no binding”.

B4: gp34wt.14 (antibody, V domains shown)
VH: QVKLLQSGPELKKPGETVKISCKASGYAFTNYGMNWVKQTPGKGLKWMGWINTYTGKPTYADDFKGRFAFSLETSASSAYLQINNLKNEDTATYFCARRRGNSFDYWGQGTTLTVSS
VL: DIVITQSPSSLTVTAGEKVTMSCKSSQSLLNSGNQENCLTWYQQKPGQPPRLLIYWASTRESGVPDRFTGSGSGTDFTLTISSVQAEDLAVYYCQNDYTYPLTFGAGTKLELK
notes: mouse IgG2a hybridoma mAb; leader in entries; also called anti gp34 clone wt.14
For B4, the binding result in test [5] was “no binding”.

B5: gp34wt.09 (antibody, V domains shown)
VH: EVQLEQSGPELVKPGASVKMSCKASGYTFTRPYIHWVKQRPGQGLEWIGWIYPGDGITKYNEKFKGKITLTADKSSSAAYMLLSSLTSEDSAIYFCASFTTPVYWGQGTSVTVSS
VL: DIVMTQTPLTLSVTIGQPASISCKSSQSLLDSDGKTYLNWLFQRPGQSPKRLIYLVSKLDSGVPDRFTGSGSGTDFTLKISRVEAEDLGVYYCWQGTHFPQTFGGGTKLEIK
notes: mouse IgG1 hybridoma mAb; leader in entries; also called anti gp34 clone wt.09
On to B5, for which the binding result in test [5] was “no binding”; in test [1], “no binding”; in test [6], “no binding (tested: 1 µg/ml)”; in test [7], “binds”. The molecule further returned an IC50 in test [4] of 0.063 µg/mL.

B6: gp34wt.12 (antibody, V domains shown)
VH: EVKLQESGPELVKPGASVKMSCKASGYTVTRSYIHWVKQRPGQGLEWIGWIYPGDGSTKYNEKFKGKTTLTVDKSSSTAYMLLSSLTSEDSAIYFCASFTTPVYWGQGTSVTVSS
VL: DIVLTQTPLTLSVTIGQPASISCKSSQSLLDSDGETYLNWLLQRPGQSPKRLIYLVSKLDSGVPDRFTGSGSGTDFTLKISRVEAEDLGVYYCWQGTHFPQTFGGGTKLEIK
notes: mouse IgG1 hybridoma mAb; leader in entries; also called anti gp34 clone wt.12
For the molecule B6, the binding result in test [5] is reported as “no binding”; in test [1], “no binding”; in test [6], “no binding (tested: 1 µg/ml)”; in test [7], “binds”. The IC50 in test [4] came out at 0.07 µg/mL.

B7: gp34wt.10 (antibody, V domains shown)
VH: EVKLEQSGPELVKPGASVKMSCKASGYTFTRPYIHWVKQRPGQGLEWIGWIYPGDGITKYNEKFKGKITLTADKSSSAAYMLLSSLTSEDSAIYFCASFTTPVYWGQGTSVTVSS
VL: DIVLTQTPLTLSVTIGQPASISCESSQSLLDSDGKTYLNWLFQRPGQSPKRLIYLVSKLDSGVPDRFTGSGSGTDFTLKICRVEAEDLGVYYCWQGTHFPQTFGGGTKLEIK
notes: mouse IgG1 hybridoma mAb; leader in entries; also called anti gp34 clone wt.10
As to B7, the binding result in test [5] is “no binding”; in test [1] it was “no binding”; in test [6], “no binding (tested: 1 µg/ml)”; in test [7], “binds”. For the same molecule, the IC50 in test [4] was 0.089 µg/mL.

B8: gp34wt.11 (antibody, V domains shown)
VH: QVQLEESGPELVKPGASVKMSCKASGYTVTRSYIHWVKQRPGQGLEWIGWIYPGDGSTKYNEKFKGKTTLTVDKSSSTAYMLLSSLTSEDSAIYFCASFTTPVYWGQGTSVTVSS
VL: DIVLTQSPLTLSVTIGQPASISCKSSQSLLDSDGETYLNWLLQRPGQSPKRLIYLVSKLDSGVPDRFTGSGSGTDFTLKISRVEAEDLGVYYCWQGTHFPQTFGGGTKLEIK
notes: mouse IgG1 hybridoma mAb; leader in entries; also called anti gp34 clone wt.11
Regarding B8, the binding result in test [5] is listed as “no binding”; in test [1] it was “no binding”; in test [6], “no binding (tested: 1 µg/ml)”; in test [7] it was “binds”. This molecule also gave an IC50 in test [4] of 0.077 µg/mL.

B9: gp34wt.07 (antibody, V domains shown)
VH: QVKLEESGPELVKTGASVKISCKASGYSFTSYQIYWVKQSHGKSLEWIGHISCYNGATSYNQKFKDKATFTVDTSSSTAYMQFNSLTSEDSAVYFCARYDYAPDYYAMDYWGQGTSVTVSS
VL: DIVLTQTPASLAVSLGQRATISCRASESVDSYGNSFMHWYQQKPGQPPKLLIYLASNLESGVPARFSGSGSRTDFTLTIDPVEAEDAAIYYCQQNNEDPLTFGGGTKLELK
notes: mouse IgG1 hybridoma mAb; leader in entries; also called anti gp34 clone wt.07
B9: the binding result is “no binding” in test [5], “no binding” in test [1] and “no binding (tested: 1 µg/ml)” in test [6]. The IC50 in test [4] amounted to 0.447 µg/mL.

B10: gp34wt.08 (antibody, V domains shown)
VH: EVQLEQSGPELVKTGASVKISCKASGYSFTSYQIYWVKQSHGKSLEWIGHISCYNGATSYNQKFKDKATFTVDTSSSTAYMQFNSLTSEDSAVYFCARYDYAPDYYAMDYWGQGTSVTVSS
VL: DIVMTQTPASLAVSLGQRATISCRASESVDSYGNSFMHWYQQKPGQPPKLLIYLASNLESGVPARFSGSGSRTDFTLTIDPVEAEDAAIYYCQQNNEDPLTFGGGTKLELK
notes: mouse IgG1 hybridoma mAb; leader in entries; also called anti gp34 clone wt.08
Consider B10, for which the binding result in test [5] is reported as “no binding”; in test [1], “no binding”; in test [6], “no binding (tested: 1 µg/ml)”. The molecule further displayed an IC50 in test [4] of 0.494 µg/mL.

B11: gp34wt.15 (antibody, V domains shown)
VH: QVKLQQSGPELVKPGASVKMSCKASGYTFRSYYIHWVKQRPGQGLEWIGWNNPGDGTAKYNEKFKGKTTLTADKSSSTAYMLLSSLTSEDSAIYFCASFNTPDYWGQGTSVTVSS
VL: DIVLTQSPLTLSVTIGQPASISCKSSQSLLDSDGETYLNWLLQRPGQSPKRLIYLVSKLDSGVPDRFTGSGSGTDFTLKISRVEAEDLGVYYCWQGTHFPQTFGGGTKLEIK
notes: mouse IgG1 hybridoma mAb; leader in entries; also called anti gp34 clone wt.15
Take B11: the binding result in test [5] is reported as “no binding”; in test [6], “no binding (tested: 1 µg/ml)”; in test [7], “binds”. In addition, the IC50 in test [4] came to 0.12 µg/mL.

B12: gp34mtrp.05 (antibody, V domains shown)
VH: EVKLLQSGPEVKKPGETVKISCKASGYTFTNYGMSWLRQAPGKGLKWMGWINTYTGEPTYADDFKGRFAFSLETSASTAYFQINNLKDEDTTTYFCARRAFGGLDYWGQGTSVTVSS
VL: DIVMTQSPLSLPVSLGDQASISCRSSQSIVYTNGNTYLEWYLQKPGQSPKLLIYKVSNRFSGVPDRFSGSGSGTDFTLKISRVEAEDLGVYYCFQGSHVPWTFGGGTKLEIK
notes: mouse IgG1 hybridoma mAb; leader in entries; also called anti gp34 clone mtrp.05
On to B12, for which, in test [1], the binding result is on record as “binds”. Further, the “percent blocking of gp34-CRP-binding” value in test [2] was ~50%. Further, the “percent blocking of gp34 FcRn-binding” value in test [3] is ≤ 50%. In test [4], this molecule had an IC50 of 5.34 µg/mL.

B13: gp34mtrp.06 (antibody, V domains shown)
VH: EVQLLQSGPEVKKPGETVKISCKASGYTFTNYGMSWLRQAPGKGLKWMGWINTYTGEPTYADDFKGRFAFSLETSASTAYFQINNLKNEDTTTYFCARRAFGGLDYWGQGTSVTVSS
VL: DIVLTQSPLSLPVSLGDQASISCRSSQSIVYTNGNTYLEWYLQKPGQSPKLLIYKVSNRFSGVPDRFSGSGSGTDFTLKISRVEAEDLGVYYCFQGSHVPWTFGGGTKLEIK
notes: mouse IgG1 hybridoma mAb; leader in entries; also called anti gp34 clone mtrp.06
On to B13, for which the binding result in test [1] is reported as “binds”. Further, the “percent blocking of gp34-CRP-binding” value in test [2] is ~50%. In addition, the “percent blocking of gp34 FcRn-binding” value in test [3] is ≤ 50%. The molecule further gave an IC50 in test [4] of 4.46 µg/mL.
